Results taken from US7138262B1, “High mannose proteins and methods of making high mannose proteins” (Shire Human Genetic Therapies, Inc., priority 2000, dated 2006).

Test system: mouse J774E cells
Assay: Internalization (uptake) of glucocerebrosidase into J774E macrophage cells, with or without mannan
Assay type: cell-based
Conditions: for Glucocerebrosidase Activity, Absolute / Glucocerebrosidase Activity, Background Corrected / uptake of GA-GCB over background: GA-GCB 10 μg/mL; for Glucocerebrosidase Activity, Absolute: 4 hours at 37° C.; for Glucocerebrosidase Activity, Background Corrected / uptake of GA-GCB over background: 4 hours; for Inhibition (%) of uptake by mannan: mannan 2 μg/mL, competitor for the mannose receptor
Description: GA-GCB produced in HT-1080 cells was used in an in vitro assay to determine uptake efficiency in a mouse macrophage cell line. The specific objective of the experiment was to determine the absolute and mannose receptor-specific uptake of GA-GCB in mouse J774E cells. One day prior to assay, J774E cells were plated at 50,000 cells/cm^2 in 12 well plates in Growth Medium. For the assay, 0.5 mL of Production Medium (DMEM/F12), 0% calf serum) containing 50 nM vitamin D3 (1,2-5, Dihydroxy vitamin D3) was added to the cells. Unpurified GA-GCB (from harvest 4, Table 1) was added to the test wells at a final concentration of 10 μg/mL in the presence or absence of 2 μg/mL mannan (a competitor for the mannose receptor). Three different forms of GA-GCB were used: GA-GCB from cells treated with kifunensine (1 μg/mL), GA-GCB from cells treated with swainsonine (1 μg/mL), and GA-GCB (1 μg/mL) from untreated cells. Control wells received no GA-GCB. The wells were incubated for 4 hours at 37° C., then washed extensively in buffered saline, scraped into GA-GCB enzyme reaction buffer, passed through 2 freeze/thaw cycles, and clarified by centrifugation. The supernantant was then quantitatively tested for enzyme activity and total protein. Internalization of GA-GCB into mouse J744E cells is shown in Table 2 and is reported as Units/mg of cell lysate. […] Thus, the inhibition of intracellular mannosidases by either kifunensine or swainsonine results in GA-GCB that can be transported into cells efficiently via the mannose receptor, with kifunensine causing an approximately 2-fold greater uptake than swainsonine. Improvement in targeting of GA-GCB to cells via mannose receptors can therefore be optimized by production of GA-GCB in the presence of kifunensine or swainsonine.

B1: GA-GCB from kifunensine treated cells: unpurified gene-activated glucocerebrosidase from HT-1080 cells treated with kifunensine (1 μg/mL) (protein)
chain: ARPCIPKSFGYSSVVCVCNATYCDSFDPPTFPALGTFSRYESTRSGRRMELSMGPIQANHTGTGLLLTLQPEQKFQKVKGFGGAMTDAAALNILALSPPAQNLLLKSYFSEEGIGYNIIRVPMASCDFSIRTYTYADTPDDFQLHNFSLPEEDTKLKIPLIHRALQLAQRPVSLLASPWTSPTWLKTNGAVNGKGSLKGQPGDIYHQTWARYFVKFLDAYAEHKLQFWAVTAENEPSAGLLSGYPFQCLGFTPEHQRDFIARDLGPTLANSTHHNVRLLMLDDQRLLLPHWAKVVLTDPEAAKYVHGIAVHWYLDFLAPAKATLGETHRLFPNTMLFASEACVGSKFWEQSVRLGSWDRGMQYSHSIITNLLYHVVGWTDWNLALNPEGGPNWVRNFVDSPIIVDITKDTFYKQPMFYHLGHFSKFIPEGSQRVGLVASQKNDLDAVALMHPDGSAVVVVLNRSSKDVPLTIKDPAVGFLETISPGYSIHTYLWRRQ
- Glucocerebrosidase Activity, Absolute (+ mannan 2 μg/mL): 2977 Units/mg cell lysate
- Glucocerebrosidase Activity, Absolute (without mannan): 9185 Units/mg cell lysate
- Glucocerebrosidase Activity, Background Corrected (+ mannan 2 μg/mL): 2322 Units/mg cell lysate
- Glucocerebrosidase Activity, Background Corrected (without mannan): 8530 Units/mg cell lysate
- uptake of GA-GCB over background (without mannan): 14 fold
- Inhibition (%) of uptake by mannan: 73%

B2: GA-GCB from swainsonine treated cells: unpurified gene-activated glucocerebrosidase from HT-1080 cells treated with swainsonine (1 μg/mL) (protein)
chain: B1 chain
- Glucocerebrosidase Activity, Absolute (+ mannan 2 μg/mL): 2036 Units/mg cell lysate
- Glucocerebrosidase Activity, Absolute (without mannan): 4787 Units/mg cell lysate
- Glucocerebrosidase Activity, Background Corrected (+ mannan 2 μg/mL): 1381 Units/mg cell lysate
- Glucocerebrosidase Activity, Background Corrected (without mannan): 4132 Units/mg cell lysate
- uptake of GA-GCB over background (without mannan): 7 fold
- Inhibition (%) of uptake by mannan: 67%

B3: hmGCB: glucocerebrosidase having at least one carbohydrate chain having four or more mannose residues from a precursor oligosaccharide (protein)
chain: B1 chain
- hmGCB uptake by macrophages compared to uptake of GCB secreted from cells (summary statement): increased

B4: GA-GCB from untreated cells: unpurified gene-activated glucocerebrosidase from HT-1080 cells without drug treatment (protein)
chain: B1 chain
- Glucocerebrosidase Activity, Absolute (+ mannan 2 μg/mL): 1678 Units/mg cell lysate
- Glucocerebrosidase Activity, Absolute (without mannan): 2816 Units/mg cell lysate
- Glucocerebrosidase Activity, Background Corrected (+ mannan 2 μg/mL): 1023 Units/mg cell lysate
- Glucocerebrosidase Activity, Background Corrected (without mannan): 2161 Units/mg cell lysate
- uptake of GA-GCB over background (without mannan): approximately 3 fold
- Inhibition (%) of uptake by mannan: 53%
